Measurements: publication PMC10397247
One block for each binder: values may come before it.

What was measured:
Assay in all cases: two-hybrid library CCNG1;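 also: natural log of median RNA to DNA barcode read ratio; higher means stronger binding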
[1] = biological target: T1, 4H2729-bH
T1 chain: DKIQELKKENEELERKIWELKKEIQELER

[2] = biological target: T2, 4H3112-bH
T2 chain: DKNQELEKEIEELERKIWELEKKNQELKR

[3] = biological target: T3, 4H3185-bH
T3 chain: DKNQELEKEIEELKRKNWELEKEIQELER

[4] = biological target: T4, 4H331-bH
T4 chain: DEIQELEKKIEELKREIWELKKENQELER

[5] = biological target: T5, 4H3354-bH
T5 chain: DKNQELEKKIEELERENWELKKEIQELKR

[6] = biological target: T6, 4H338-bH
T6 chain: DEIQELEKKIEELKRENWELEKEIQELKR

[7] = biological target: T7, 4H3427-bH
T7 chain: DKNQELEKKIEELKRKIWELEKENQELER

[8] = biological target: T8, 4H3782-bH
T8 chain: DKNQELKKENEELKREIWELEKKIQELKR

[9] = biological target: T9, 4H3855-bH
T9 chain: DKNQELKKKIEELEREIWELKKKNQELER

[10] = biological target: T10, 4H4001-bH
T10 chain: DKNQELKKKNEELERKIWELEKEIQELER

[11] = biological target: T11, 4H454-bH
T11 chain: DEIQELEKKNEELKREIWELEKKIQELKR

[12] = biological target: T12, 4H568-bH
T12 chain: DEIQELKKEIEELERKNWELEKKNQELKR

[13] = biological target: T13, 4H607-bH
T13 chain: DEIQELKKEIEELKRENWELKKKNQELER

[14] = biological target: T14, 4H687-bH
T14 chain: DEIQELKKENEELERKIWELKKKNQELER

[15] = biological target: T15, 4H717-bH
T15 chain: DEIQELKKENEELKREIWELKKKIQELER

[16] = biological target: T16, 4H72-bH
T16 chain: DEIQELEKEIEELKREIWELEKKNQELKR

[17] = biological target: T17, 4H754-bH
T17 chain: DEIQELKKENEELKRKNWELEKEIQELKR

[18] = biological target: T18, 4H797-bH
T18 chain: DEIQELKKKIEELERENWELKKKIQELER

[19] = biological target: T19, 4H883-bH
T19 chain: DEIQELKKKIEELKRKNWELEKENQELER

[20] = biological target: T20, 4H908-bH
T20 chain: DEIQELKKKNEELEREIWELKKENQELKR

[21] = biological target: T21, 4H918-bH
T21 chain: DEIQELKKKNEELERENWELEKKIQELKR

[22] = biological target: T22, 4H953-bH
T22 chain: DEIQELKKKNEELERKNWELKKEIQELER

[23] = biological target: T23, 4H967-bH
T23 chain: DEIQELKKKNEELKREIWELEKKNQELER

[24] = biological target: T24, 4H2667-bH
T24 chain: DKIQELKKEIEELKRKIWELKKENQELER

[25] = biological target: T25, 4H2697-bH
T25 chain: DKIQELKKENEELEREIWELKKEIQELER

[26] = biological target: T26, 4H3189-bH
T26 chain: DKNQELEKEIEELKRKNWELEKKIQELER

[27] = biological target: T27, 4H3606-bH
T27 chain: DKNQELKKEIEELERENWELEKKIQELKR

[28] = biological target: T28, 4H370-bH
T28 chain: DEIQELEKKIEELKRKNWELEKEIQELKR

[29] = biological target: T29, 4H3843-bH
T29 chain: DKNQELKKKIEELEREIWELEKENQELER

[30] = biological target: T30, 4H3843-bN
T30 chain: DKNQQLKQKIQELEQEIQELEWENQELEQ

[31] = biological target: T31, 4H462-bH
T31 chain: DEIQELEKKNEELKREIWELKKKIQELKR

[32] = biological target: T32, O4-bN
T32 chain: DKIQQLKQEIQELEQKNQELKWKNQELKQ

interaction score [1]: 1.2
interaction score [2]: 0.258
interaction score [3]: -3.12
interaction score [4]: -1.61
interaction score [5]: -0.446
interaction score [6]: -0.279
interaction score [7]: 0.368
interaction score [8]: 0.82
interaction score [9]: 0.286
interaction score [10]: -0.467
interaction score [11]: 1.36
interaction score [12]: -0.0225
interaction score [13]: -1.66
interaction score [14]: -0.723
interaction score [15]: -0.127
interaction score [16]: -1.03
interaction score [17]: 0.0247
interaction score [18]: -0.381
interaction score [19]: -0.885
interaction score [20]: -0.811
interaction score [21]: 0.482
interaction score [22]: -0.638
interaction score [23]: 0.548
B1: 4H2729-bH (peptide)
chain: DKIQELKKENEELERKIWELKKEIQELER

interaction score [24]: 0.801
interaction score [25]: 1.31
interaction score [1]: 1.75
interaction score [2]: -0.422
interaction score [3]: 0.789
interaction score [26]: -0.454
interaction score [4]: 1.71
interaction score [5]: -0.302
interaction score [6]: 1.42
interaction score [7]: 1.38
interaction score [27]: 1.83
interaction score [28]: 0.226
interaction score [8]: -0.0673
interaction score [29]: 1.84
interaction score [30]: 1.56
interaction score [9]: 0.693
interaction score [10]: -2.94
interaction score [11]: 0.0385
interaction score [31]: 1.01
interaction score [12]: 0.0192
interaction score [13]: 0.145
interaction score [14]: -0.168
interaction score [15]: -0.859
interaction score [16]: 0.612
interaction score [17]: -0.933
interaction score [18]: -0.539
interaction score [19]: 0.434
interaction score [20]: -1.3
interaction score [21]: -2.64
interaction score [22]: 0.0882
interaction score [23]: -0.166
interaction score [32]: -0.678
B2: 4H2667-bH (peptide)
chain: DKIQELKKEIEELKRKIWELKKENQELER
